For the series, the target named is CD31 (PECAM-1) (Homo sapiens) (UniProt P16284). The conditions noted are these: 5-(N-naphthylcarboxyamide)-2'-deoxyuridine (NapdU) replaces dT; SOMAmer; Flow cytometry: 1x PBS (pH 7.4), 2% FBS, 5 mM MgCl2, 0.2 mM dextran sulfate, room temperature, 15 min; aptamers heated at 95 C 5 min and cooled; Kd assay ….
Sequence of UniProt P16284 (P16284 28-601): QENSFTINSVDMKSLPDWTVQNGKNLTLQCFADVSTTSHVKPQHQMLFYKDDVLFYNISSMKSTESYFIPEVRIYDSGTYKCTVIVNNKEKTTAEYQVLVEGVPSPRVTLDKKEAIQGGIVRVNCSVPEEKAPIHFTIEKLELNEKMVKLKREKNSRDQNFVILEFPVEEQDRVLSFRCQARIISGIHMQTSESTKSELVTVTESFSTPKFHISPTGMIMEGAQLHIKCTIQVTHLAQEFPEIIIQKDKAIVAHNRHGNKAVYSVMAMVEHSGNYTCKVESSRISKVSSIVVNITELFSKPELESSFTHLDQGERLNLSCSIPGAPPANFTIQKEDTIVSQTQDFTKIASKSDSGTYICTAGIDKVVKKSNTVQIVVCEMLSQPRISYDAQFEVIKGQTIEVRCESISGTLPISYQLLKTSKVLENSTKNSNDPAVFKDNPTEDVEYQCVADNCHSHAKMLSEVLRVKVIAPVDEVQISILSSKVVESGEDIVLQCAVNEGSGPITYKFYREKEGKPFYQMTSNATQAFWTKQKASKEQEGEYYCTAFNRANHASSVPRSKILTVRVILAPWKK

Sequence “TCAGCCGCCAGCCAGTTCGUAGAGGAGGUACGUAAUGUCUGGGUAUACCCCGAUAAUUGACCAGAGCACCACAGAG [AT-1 (CD31 aptamer clone 1)]” came in with a Kd of 2.28 nM.

(Values after paper PMC4493074.)
